Data on four molecules can be found in patent publication US20040102370A1 (IMPERIAL INNOVATIONS, published 2004).

“And” between values parts separate entries of the source, which are not always exact repeats. Equal values may be shown once. No end group written: not given here.

This assay addresses FGF receptors. Kind of assay: cell-based or functional assay.

With Ac-DAVEPYSSTA-NH2 [Peptide F: Acetyl-DAVEPYSSTA-amide], the “peptide concentration giving maximal effect in the neurite outgrowth assay” value was 100 µg/ml and 100 µM. The result for Ac-EGMEGM-NH2 [Peptide D: Acetyl-EGMEGM-amide] reads 63 µg/ml and 100 µM; that for Ac-DRVE-NH2 [Peptide B: Acetyl-DRVE-amide], 75 µg/ml and 150 µM.

B1: Peptide A(d): [{Ac-DRVEPYSSTA}2-K]2-K-OH (peptide)
peptide: Ac-DRVEPYSSTA
chain: Lys-OH
modifications: also: four copies of chain 1 on a branched core of three lysines (two Lys on α- and ε-amines of C-terminal Lys)
For B1, the “peptide concentration giving maximal effect in the neurite outgrowth assay” value was about 0.4 µM.
